We go through one substance from article PMC9968290.

The target of experiment [1] is C-terminally truncated zebrafish ortholog of the TREK1 channel (drTREK1), residues 1-322, N95Q, N122Q (D. rerio (zebrafish)). The experiment can be described thus: native MS; TREK1 in 200 mM ammonium acetate pH 8, 0.25 mM DDM, without lipid or with 0.1 mg/ml POPA or 0.025 mg/ml POPE; static nanospray on a Q-Exactive EMR.
The target is the same in experiment [2]. Kind of experiment: cryo-EM structure; single particle cryo-EM of purified TREK1 at 3 mg/ml in DDM micelles (150 mM KCl, 20 mM Tris pH 8.0), without lipid or with POPA or POPE mixed micelles.

For “C-terminally truncated zebrafish ortholog of the TREK1 channel (drTREK1), residues 1-322, N95Q, N122Q (natural protein)”, the stoichiometry N in experiment [1] and in experiment [2] was 2 in each case.

By stoichiometry N is commonly meant the number of molecules, sites or subunits per partner or assembly.
